Source: patent publication US8383797B2, “Luciferase gene optimized for use in imaging of intracellular luminescence” (Toyo Boseki Kabushiki Kaisha, priority 2005, dated 2013)

Columns and labels:
[1] = tested on: cultured fibroblast NIH3T3 cells; assay: Transient assay of Bmal1 promoter activity, luminescence of cell extract; assay type: cell-based; settings: PEST-fused luciferase, NIH3T3, cell lysate, luminometer
Experimental: The aforementioned reporter vector (200 ng) was introduced into the cultured fibroblast NIH3T3 cells seeded in a 24-well plate by the lipofection method, the cells were cultured at 37° C. for 24 hours, and disrupted with 300 μL of a cell lysis agent (cultured cell lysis agent for PicaGene Dual Seapansy supplied from Toyo Ink MFG Co., Ltd.). A luminescent substrate solution (50 μL) (PicaGene luminescence reagent II) was added to a cell extract solution (50 μL), and 20 seconds of luminescence was measured using a luminometer (AB2250 supplied from ATTO Corporation) (FIG. 1B).

[2] = tested on: cultured fibroblast NIH3T3 cells; assay: Bioluminescence imaging of cells expressing FLAG-tagged luciferase; assay type: cell-based; settings: CMV promoter, FLAG tag, NIH3T3, 200 μM D-luciferin, CCD camera, three minutes
Experimental: A FLAG tag sequence (MDYDDDDK; SEQ ID NO: 15) was ligated to the N terminus of the firefly luciferase cDNA (Luc(+), supplied from Promega) derived from Photinus pyralis produced in North America and the improved-type click beetle luciferase cDNA (SEQ ID NO: 2). The expression vector (2 μg) obtained by inserting one of them downstream of the CMV promoter was introduced in the cultured fibroblast NIH3T3 cells by the lipofection method, and the cells were cultured at 37° C. for 24 hours. Subsequently, the medium was replaced with a DMEM medium containing 200 μM D-luciferin and 10% (w/v) bovine serum, and three minutes of bioluminescence was measured using a CCD camera (Cellgraph supplied from ATTO Corporation) cooled to −60° C.

[3] = pH dependency of luminescence of recombinant luciferase enzyme preparations; assay type: biochemical; settings: pH 6.6 to 8.8, relative activity with pH 8.0 set as 100
Experimental: A click beetle-derived luciferase enzyme preparation was acquired as a recombinant body by inserting the luciferase gene PtGRm in the vector pELuc-test (Toyobo Co., Ltd.) into the expression vector for Escherichia coli and expressing it in Escherichia coli. As a firefly luciferase enzyme preparation, QuantiLum Recombinant Luciferase (Promega, described as fLuc in the figure) was used. For each enzyme preparation, a luminescence reagent containing 15 mM MgSO4, 6 mM EDTA, 4 mM Co-enzyme A, 1.2 mM D-luciferin, 6 mM DTT, 0.2% Nonidet P40, 2 mM ATP and 2 μg/mL of the enzyme preparation was prepared. Then, 100 μL of ATP solution at […], 0.2 mM or 1 mM and 100 μL of 100 mM Hepes-NaOH pH 6.6 to 8.8 were mixed, and the luminescence was measured.
A graph of luminescence measurement values and a graph obtained by plotting the relative activity at each pH when the measurement value at pH 8.0 was set as 100 in each luciferase are shown in FIG. 12.

[4] = tested on: cultured fibroblast NIH3T3 cells; assay: Real-time monitoring of luminescence under control of the Bmal1 promoter in living cells; assay type: cell-based; settings: PEST-fused luciferase, NIH3T3, 200 μM D-luciferin
Experimental: Short lifespan-type luciferase was made by ligating a PEST sequence (SEQ ID NO: 7) of murine ornithine decarboxylase to a wild-type (SEQ ID NO: 1) and improved-type (SEQ ID NO: 2) click beetle luciferase cDNA. Vectors in which these had been inserted downstream of a murine circadian clock gene Bmal1 promoter (GenBank Accession No. AB064982) were made. Subsequently, 1 μg of each vector was introduced into cultured fibroblast NIH3T3 cells seeded in a 35 mm culture dish by a lipofection method (LipofectAMINE PLUS, Invitrogen), and the cells were cultured at 37° C. for 24 hours and treated with a DMEM medium containing 100 nM dexamethasone for 2 hours. The medium was replaced with a DMEM medium containing 200 μM D-luciferin and 10% (w/v) bovine serum, and then one minute of luminescence was measured every 15 minutes for 5 days in real time using a real-time gene expression measurement apparatus (AB2500 supplied from ATTO Corporation) (FIG. 1A).

HeLa S3 cells = assay: Analysis of AP1 response sequence in living cells, 96-well plate; assay type: cell-based; settings: HeLa S3, TPA or EGF stimulation, 0.2 mM D-luciferin
Experimental: HeLa S3 cells were seeded at 3×10^4 cells (100 μL) per well in a 96-well white opaque plate, and cultured in Dulbecco's Modified Eagle's Medium DMEM (Nissui Pharmaceutical Co., Ltd.) containing 10% FCS. The following day, 0.2 μg per well of the plasmid pELuc-AP1 or pGL3-AP1 (diluted with 25 μL of DMEM containing no FCS) and 0.5 μL of Lipofectamine 2000 transfection reagent (Invitrogen, diluted with 25 μL of DMEM)) were mixed and added to the cells in the medium replaced with 100 μL of DMEM+0.1% FCS, which was incubated for 24 hours to introduce the gene. The following day, the medium was either not replaced, or replaced with DMEM+0.1% FCS (further containing 0.2 mM D-luciferin) containing 0.01 μM TPA (Sigma), 0.1 μM TPA, 1 μM TPA or 10 ng/mL of EGF, and the cells were incubated for 5 hours. Subsequently, the luminescence was measured using a plate reader 1420 ARVOMX (Perkin Elmer). In the graph for measurement values, readout values were plotted, and in the graph for induction ratios, an expression induction ratio at each concentration calculated when the value in an additive-free condition equaled 1 was plotted.

[5] = tested on: cultured fibroblast rat1 cells; assay: Real-time monitoring of luminescence under control of the Bmal1 promoter in living cells; assay type: cell-based; settings: PEST-fused luciferase, luminescence amount integrated within 24 hours
Experimental: Short lifespan-type luciferase was made by ligating the PEST sequence (SEQ ID NO: 7) of murine ornithine decarboxylase to firefly luciferase cDNA (Luc(+), supplied from Promega) derived from Photinus pyralis produced in North America and improved-type click beetle luciferase cDNA (SEQ ID NO: 2). Vectors in which these had been inserted downstream of a murine circadian clock gene Bmal1 promoter (GenBank Accession No. AB064982) were made. Subsequently, 1 μg of each vector was introduced into cultured fibroblast rat1 cells seeded in a 35 mm culture dish by the lipofection method (LipofectAMINE PLUS), and the cells were cultured at 37° C. for 24 hours and treated with the DMEM medium containing 100 nM dexamethasone for 2 hours. The medium was replaced with a DMEM medium containing 200 μM D-luciferin and 10% (w/v) bovine serum, and then one minute of luminescence was measured every 15 minutes for 5 days using the real-time gene expression measurement apparatus (AB2500 supplied from ATTO Corporation) (FIG. 2).

B1: improved-type click beetle luciferase: Pyrearinus termitilluminans click beetle luciferase expressed from the modified gene of SEQ ID NO: 2 (protein)
chain: MEREKNVVYGPEPKHPLGNFTAGEMLYNALHKHSHIPQAILDVMGNESLSYQEFFDTTVKLGQSLQNCGYKMNDVVSICAENNKRFFIPIISAWYIGMVVAPVNEDYIPDELCKVTGISKPILVFTTRKILPKVLEVKDRTNYIKRIIILDSEENLLGCESLHNFMSRYSDNNLQTFKPLHYDPVDQVAAILCSSGTTGLPKGVMQTHRNICVRLTHASDPRVGTQLIPGVSVLAYLPFFHAFGFSINLGYFMVGLRVVMLRRFNQEVFLKAIQDYEVRSVINVPSTILFLSKSPLVDKYDLSTLAELCCGAAPLAKEVAEIAVKRLNLPGIRCGYGLTESTSANIHTLHNEFKSGSLGKVTPYMAAKIIDRNTGEALGPNQVGELCIWGPMVTKGYVNNPQATKEAIDDDGWLHSGDFGYYDEDEYFYIVDRYKELIKYKGYQVAPVELEEILLQHPGIRDVAVVGIPDIEAGELPAGFVVKQPGAQLTAKEVYDFLAQRVSHSKYLRGGVRFVDSIPRNVTGKISRKELREALMEKASKL
modifications: Pyrearinus termitilluminans
Question: With B1 as the molecule, how does the “luminescence intensity relative to wild-type luciferase” value [1] read?
Answer: The value was “about 150 times”.

Question: And the “bioluminescence signal of cells compared with firefly luciferase” value [2]?
Answer: The value was “clearly emit strong signals”.

Question: And the “variation of luminescence activity due to pH compared with firefly luciferase” value [3]?
Answer: The value was “variation due to the pH values is smaller”.

Question: What about the “luminescence intensity relative to wild-type luciferase” value [4] of the same molecule?
Answer: Its value is “about 100 times”.

Question: What about the “luminescence intensity relative to conventional luciferase” value (HeLa S3 cells) of the same molecule?
Answer: Its value is 15 times.

Question: And the “luminescence intensity relative to firefly luciferase derived from Photinus pyralis” value [5]?
Answer: The value was ≥ 15 times.
